The text below walks through data of patent US20210198341A1 (published 2021).

What all share (assay): cytokine release
The target in assay [1] is T1, HPV18-E7 peptide on HLA-DRA / HLA-DRB1*09:01 (human).
T1 peptide: RAFQQLFLNTLSFVCPWCA

For assay [2], the target named is T2, HPV18-E7 peptide on HLA-DRA / HLA-DRB4*01:03 (human).
T2 peptide: RAFQQLFLNTLSFVCPWCA

Assay [3] addresses T3, RGS5 peptide on HLA-DRA / HLA-DRB4*01:03 (human).
T3 peptide: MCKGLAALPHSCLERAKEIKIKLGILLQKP

The target of assay [4] is T4, RGS5 peptide on HLA-DRA / HLA-DRB1*09:01 (human).
T4 peptide: T3 peptide

The target of assay [5] is T5, RGS5 peptide on HLA-DRA / HLA-DRB4*01:03 (human).
T5 peptide: AKEIKIKLGILLQKP

For assay [6], the target named is T6, RGS5 peptide on HLA-DRA / HLA-DRB1*09:01 (human).
T6 peptide: AKEIKIKLGILLQKP

The target of assay [7] is T7, HPV18-E7 peptide on HLA-DPA1*01:03 / HLA-DPB1*02:01 (human).
T7 peptide: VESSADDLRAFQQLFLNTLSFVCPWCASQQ

In assay [8] the target is T8, HPV18-E7 peptide on HLA-DPA1*02:02 / HLA-DPB1*05:01 (human).
T8 peptide: T7 peptide

Positions count from the first letter of the chain named.

B1: 10F04 (TCR, V domains shown)
Valpha: QKEVEQDPGPLSVPEGAIVSLNCTYSNSAFQYFMWYRQYSRKGPELLMYTYSSGNKEDGRFTAQVDKSSKYISLFIRDSQPSDSATYLCAMSPRSGYALNFGKGTSLLVTP
Vbeta: DGGITQSPKYLFRKEGQNVTLSCEQNLNHDAMYWYRQDPGQGLRLIYYSQIVNDFQKGDIAEGYSVSREKKESFPLTVTSAQKNPTAFYLCASSMDAALGEKLFFGSGTQLSVL
Take B1: the binding result in assay [1] and in assay [2] was “recognises” each time.

B2: 09E01 (TCR, V domains shown)
Valpha: GQQVMQIPQYQHVQEGEDFTTYCNSSTTLSNIQWYKQRPGGHPVFLIQLVKSGEVKKQKRLTFQFGEAKKNSSLHITATQTTDVGTYFCAGPGNQFYFGTGTSLTVIP
Vbeta: NAGVTQTPKFQVLKTGQSMTLQCAQDMNHEYMSWYRQDPGMGLRLIHYSVGAGITDQGEVPNGYNVSRSTTEDFPLRLLSAAPSQTSVYFCASSSWDRDQPQHFGDGTRLSIL
Regarding B2, the binding result in assay [3] and in assay [4] was “recognises” each time.

B3: 09D01 (TCR, V domains shown)
Valpha: RKEVEQDPGPFNVPEGATVAFNCTYSNSASQSFFWYRQDCRKEPKLLMSVYSSGNEDGRFTAQLNRASQYISLLIRDSKLSDSATYLCVVNMRDSSYKLIFGSGTRLLVRP
Vbeta: GAVVSQHPSRVICKSGTSVKIECRSLDFQATTMFWYRQFPKKSLMLMATSNEGSKATYEQGVEKDKFLINHASLTLSTLTVTSAHPEDSSFYICSAHERITDTQYFGPGTRLTVL
As to B3, the binding result in assay [5] and in assay [6] was “recognises” in each case.

B4: 09H05 (TCR, V domains shown)
Valpha: B3 Valpha with R93K
Vbeta: GAVVSQHPSRVICKSGTSVKIECRSLDFQATTMFWYRQFPKKSLMLMATSNEGSKATYEQGVEKDKFLINHASLTLSTLTVTSAHPEDSSFYICSALEGTSGKETQYFGPGTRLLVL
Take B4: the binding result in assay [5] and in assay [6] was “recognises” each time.

B5: 33D05 (TCR, V domains shown)
Valpha: AQSVTQLDSHVSVSEGTPVLLRCNYSSSYSPSLFWYVQHPNKGLQLLLKYTSAATLVKGINGFEAEFKKSETSFHLTKPSAHMSDAAEYFCVVSAIGYSSASKIIFGSGTRLSIRP
Vbeta: DTGVSQNPRHKITKRGQNVTFRCDPISEHNRLYWYRQTLGQGPEFLTYFQNEAQLEKSRLLSDRFSAERPKGSFSTLEIQRTEQGDSAMYLCASSLVAGGPAETQYFGPGTRLLVL
Take B5: the binding result in assay [7] and in assay [8] was “recognises” in each case.
